Assay results: EP4592315A1 (Biotheus Inc., dated 2024)
One block for each binder: values may come before it.

Experiments:
human 4-1BB = molecular target: T1, human 4-1BB (human, UniProt Q07011 24-255); assay: flow cytometry on CHOS-h4-1BB cells (overexpressing human 4-1BB), anti-human IgG-Fc PE
T1 construct: whole, on cells; also called h4-1BB; CD137

human FcγRIIb = molecular target: T2, human FcγRIIb (human, UniProt P31994 43-310); assay: flow cytometry on CHOS-hCD32b cells (overexpressing human FcγRIIb), anti-human IgG-Fc PE
T2 construct: whole, on cells; also called hCD32b; CD32b
T2 sequence (looked up): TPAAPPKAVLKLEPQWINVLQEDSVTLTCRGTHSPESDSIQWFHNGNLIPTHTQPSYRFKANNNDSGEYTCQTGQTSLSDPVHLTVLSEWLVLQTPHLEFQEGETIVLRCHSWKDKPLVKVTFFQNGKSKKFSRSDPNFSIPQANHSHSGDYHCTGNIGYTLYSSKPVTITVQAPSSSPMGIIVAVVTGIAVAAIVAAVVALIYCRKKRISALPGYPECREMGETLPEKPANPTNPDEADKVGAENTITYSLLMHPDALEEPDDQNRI

T1 sequence (Q07011 24-255): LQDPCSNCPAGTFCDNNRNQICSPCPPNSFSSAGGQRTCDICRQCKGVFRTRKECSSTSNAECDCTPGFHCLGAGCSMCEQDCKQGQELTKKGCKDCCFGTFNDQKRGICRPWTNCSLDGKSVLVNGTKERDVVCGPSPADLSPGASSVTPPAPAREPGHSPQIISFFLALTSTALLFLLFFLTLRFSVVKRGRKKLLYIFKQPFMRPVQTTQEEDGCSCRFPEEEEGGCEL

EC50 (human 4-1BB): 6.99 nM
EC50 (human FcγRIIb): 1.06 nM
B1: HER2xHER2x4-1BB-1 (bispecific antibody, human IgG1, kappa)
heavy 1: not shown
light 1: DIQMTQSPSSLSASVGDRVTITCRASQSVQGAVAWYQQKPGKAPKLLIYSASFLYSGVPSRFSGSRSGTDFTLTISSLQPEDFATYYCQQHSTTPPTFGQGTKVEIKRTVAAPSVFIFPPSDEQLKSGRASVVCLLNNFYPREAKVQWKVDNALQSGNSQESVTEQDSKDSTYSLSSRLQLSKADYEKHKVYACEVTHQGLSSPVTKSFNRGEC
heavy 2: not shown
light 2: DIQMTQSPSSLSASVGDRVTITCKASQDVSIGVAWYQQKPGKAPKLLIYSASYRYTGVPSRFSGSGSGTDFTLTISSLQPEDFATYYCQQYYIYPYTFGQGTKVEIKRTVAAPSVFIFPPSDEELKSGTASVQCLLNNFYPREAKVQWKVDNALQSGNSQESVTEQDSKDSTYSLSSELTLSKADYEKHKVYACEVTHQGLSSPVTKSFNRGEC
notes: also called HER2×HER2×4-1BB-1; HER2 × HER2 × 4-1BB-1

EC50 (human 4-1BB): 0.316 nM
B2: Urelumab (antibody, human IgG4 S228P, kappa)
heavy: not shown
light: not shown
notes: also called Urelumab Analog; copies: 2 + 2
